# Source: US20250026797A1 (GOVERNMENT OF THE UNITED STATES OF AMERICA AS REPRESENTED …, published 2025)
# *: point of attachment. Biotin = O=C1N[C@H]2[C@H](CS[C@H]2CCCCC(=O)*)N1
# B1: NH2-PGLVKSK(biotin)-COOH peptide (peptide)
# peptide: H-PGLVKSK(Biotin)-OH
# SMILES: CC(C)C[C@H](NC(=O)CNC(=O)[C@@H]1CCCN1)C(=O)N[C@H](C(=O)N[C@@H](CCCCN)C(=O)N[C@@H](CO)C(=O)N[C@@H](CCCCNC(=O)CCCC[C@@H]1SC[C@@H]2NC(=O)N[C@@H]21)C(=O)O)C(C)C
# notes: Immobilised on streptavidin biosensors in BLI; in solution in the yeast display sorts; also called Nt-Pro peptide; target peptide
# B2: yeast-surface displayed GID4 A252V variant (residues 116-300, HA-tag, (GGGGS)x3 linker, c-Myc-tag) (designed binder)
# chain: YPYDVPDYAGGGGSGGGGSGGGGSGVATSLLYSGSKFRGHQKSKGNSYDVEVVLQHVDTGNSYLCGYLKIKGLTEEYPTLTTFFEGEIISKKHPFLTRKWDADEDVDRKHWGKFLAFYQYAKSFNSDDFDYEELKNGDYVFMRWKEQFLVPDHTIKDISGVSFAGFYYICFQKSAASIEGYYYHRSSEWYQSLNLTHVPEHSAPIYEFREQKLISEEDL
# notes: also called A252V (Sort 3ii); not shown: yeast-surface display fusion partner encoded by the pCTCON2 plasmid
# B3: yeast-surface displayed GID4 S253T variant (residues 116-300, HA-tag, (GGGGS)x3 linker, c-Myc-tag) (designed binder)
# chain: YPYDVPDYAGGGGSGGGGSGGGGSGVATSLLYSGSKFRGHQKSKGNSYDVEVVLQHVDTGNSYLCGYLKIKGLTEEYPTLTTFFEGEIISKKHPFLTRKWDADEDVDRKHWGKFLAFYQYAKSFNSDDFDYEELKNGDYVFMRWKEQFLVPDHTIKDISGATFAGFYYICFQKSAASIEGYYYHRSSEWYQSLNLTHVPEHSAPIYEFREQKLISEEDL
# notes: also called S253T (Sort 3i); not shown: yeast-surface display fusion partner encoded by the pCTCON2 plasmid
# B4: yeast-surface displayed GID4 S283F variant (residues 116-300, HA-tag, (GGGGS)x3 linker, c-Myc-tag) (designed binder)
# chain: YPYDVPDYAGGGGSGGGGSGGGGSGVATSLLYSGSKFRGHQKSKGNSYDVEVVLQHVDTGNSYLCGYLKIKGLTEEYPTLTTFFEGEIISKKHPFLTRKWDADEDVDRKHWGKFLAFYQYAKSFNSDDFDYEELKNGDYVFMRWKEQFLVPDHTIKDISGASFAGFYYICFQKSAASIEGYYYHRSSEWYQFLNLTHVPEHSAPIYEFREQKLISEEDL
# notes: also called S283F (Sort 3i); not shown: yeast-surface display fusion partner encoded by the pCTCON2 plasmid
# Legend:
# [1] = biological target: T1, wild-type human GID4 fragment (residues 116-300), purified with N-terminal His-tag (human, UniProt Q8IVV7 116-300); assay: BLI, biotinylated peptide on streptavidin biosensor, 10 µmol/L protein
# T1 construct: Expressed in E. coli BL21(DE3), nickel-column purified; also called wild-type GID4; native GID4; not shown: N-terminal six-histidine tag and TEV protease recognition site from the pET21(+) construct
# T1 sequence: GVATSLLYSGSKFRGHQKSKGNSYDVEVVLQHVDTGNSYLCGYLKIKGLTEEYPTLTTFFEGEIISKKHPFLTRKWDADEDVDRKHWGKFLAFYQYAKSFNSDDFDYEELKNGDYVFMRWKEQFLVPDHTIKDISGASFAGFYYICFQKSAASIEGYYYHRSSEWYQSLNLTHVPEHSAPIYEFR
# Experimental: High-throughput kinetic measurements were taken using Octet Red96e system with Octet Streptavidin (SA) Biosensors in 96-well format. The highest concentration of protein was prepared by mixing 25% of the total volume with 0.4% BSA in dialysis buffer (1×PBS) and completing subsequent dilutions with 0.1% BSA in dialysis buffer. The SA biosensors were hydrated for 10 min in the dialysis buffer with 0.1% BSA then loaded with NH₂-XXXVKSK(biotin)-COOH (where X are residues specified in the experiment and figures) by moving the sensors into wells with 10 μmol/L of the biotinylated peptide and incubating for 2 min. Unbound peptide was removed by incubating in the dialysis buffer with 0.1% BSA for 2 min in the next wells. The association of GID4 wild-type and variants were then measured by incubating the biosensors in wells with the proteins for 10 min and then dissociation measured by moving the sensors into new wells with dialysis buffer with 0.1% BSA for another 10 min. All wells contained 200 μL of specified solution. The measurements were analyzed with instrument software Data Analysis HT (Version 12).
# The association and dissociation of the GID4 wild-type and the six variants to the PGLVKSK(biotin) peptide were evaluated using BLI. BLI is an optical technique that can measure interaction between protein in solution ad peptide immobilized on the biosensor tip. […] The S283F variant has an apparent faster dissociation rate compared to the other singe mutation variants. The apparent faster dissociation rate due to S283F mutation is also present in A252V-S283F mutant, when compared to the A252V-S253T mutant. […] The increase in the BLI response and shift in dissociation rate can be beneficial as an Nt-Pro recognizing protein; differences in off-rate can be used as method to distinguish different Nt-amino acids.
# [2] = biological target: B1; assay: yeast-surface display, FACS with biotinylated peptide and streptavidin-R-phycoerythrin
# Experimental: After expression, aliquots of cells were pelleted at 3000 RPM for 3 min and suspended to 1 mL for sort samples and 100 μL for control samples such that OD₆₀₀=1 in 0.1% BSA in 1× phosphate-buffered saline (PBS, 137 mmol/L NaCl, 2.7 mmol/L KCl, 10 mmol/L sodium phosphate dibasic, 1.8 mmol/L potassium phosphate monobasic, pH 7.4). The samples were prepared with or without 10 μmol/L of NH₂-PGLVKSK(biotin)-COOH peptide, which has biotin attached to the C-terminal lysine residue. Cells were incubated, while rotating with mixing for 90 min at room temperature. Cells were then pelleted at 3600 RPM for 3 min at 4° C. and suspended in 1 mL of 0.1% BSA in PBS with 10 μg/mL of α-c-Myc (9E1) antibody conjugated to Alexa Fluor® 647 and 25 μg/mL of streptavidin conjugated to R-phycoerythrin (FIG. 1c). For control samples, no or single fluorescent probe was included in 100 μL total volume. After incubation in the dark for 40 min on ice, the cells were washed with 0.1% BSA in PBS and kept on ice until running on cell sorter.
# Cells were sorted by fluorescence-activated cell sorting (FACS) on Sony SH800 cell sorter with 100 μm chip. Control samples were used to set up compensation and gate for single cells that show binding to both fluorescent probes (Q2 in FIG. 1d). A total of 70345 cells were sorted into two 5 mL FACS tubes with 1 mL of SD-CAA in each and then combined in 14 mL Falcon cell culture tube for growth with additional 2 mL of SD-CAA media and 10 μg/mL of Carb. After ˜36 hrs of growth at 30° C. and 300 RPM, cells were subcultured to expression media and the selecting and sorting repeated, with modification of using 1 μmol/L of the peptide and collecting 10000 cells from gated areas. A third round of expression, selection, and sorting was done using 0.5 μmol/L of the biotinylated peptide. In each round of cell sorting and amplification, ˜10⁷ cells were pelleted and frozen for plasmid extraction.
Binder,binding result [1],binding result [2]
B1,binds,–
B2,–,binds
B3,–,binds
B4,–,binds
